According to patent publication US20150056162A1 (published 2015):
One block for each binder: values may come before it.

How the values were obtained:
IL-13Rα2, biotinylated [1] = biological target: T1, IL-13Rα2, biotinylated (human, UniProt Q14627 27-343, biotinylated (site not stated)); assay: SPR; kinetic
T1 chain: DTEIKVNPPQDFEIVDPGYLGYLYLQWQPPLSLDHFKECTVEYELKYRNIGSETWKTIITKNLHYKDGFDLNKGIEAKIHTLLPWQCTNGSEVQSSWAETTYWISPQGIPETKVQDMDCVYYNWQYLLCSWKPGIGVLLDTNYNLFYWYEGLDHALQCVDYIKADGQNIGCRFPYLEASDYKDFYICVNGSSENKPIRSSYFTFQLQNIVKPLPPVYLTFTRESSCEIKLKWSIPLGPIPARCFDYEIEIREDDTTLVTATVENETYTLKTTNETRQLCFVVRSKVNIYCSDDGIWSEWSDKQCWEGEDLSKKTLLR

IL-13Rα2, biotinylated [2] = biological target: T1, IL-13Rα2, biotinylated; assay: SPR; kinetic
B6 [3] = assay: SPR; equilibrium
A8 = assay: SPR; kinetic
C9 [4] = assay: SPR; kinetic
C12 [5] = assay: SPR; kinetic
C7 [6] = assay: SPR; kinetic
A7 = assay: SPR; kinetic
A6 = assay: SPR; kinetic
C3 [7] = assay: SPR; kinetic
C2 [8] = assay: SPR; kinetic
C10 [9] = assay: SPR; kinetic
C9 [10] = assay: SPR; equilibrium
C12 [11] = assay: SPR; equilibrium
C7 [12] = assay: SPR; equilibrium
C3 [13] = assay: SPR; equilibrium
C2 [14] = assay: SPR; equilibrium
C10 [15] = assay: SPR; equilibrium
B6 [16] = assay: SPR; kinetic
IL-13Rα2, biotinylated [17] = biological target: T1, IL-13Rα2, biotinylated; assay: SPR; equilibrium

Kd (IL-13Rα2, biotinylated [1]): 0.391 nM
B1: IL-13 variant DN (ligand)
chain: PGPVPPSTAVRALIEELINITQNQKAPLCNGSMVWSINRTAGMYCAALESLINVSGCSAIEKTQDMLSGFCPHKVSAGQFSSLHVRSSKIEVAQFVKDLLFHLRTLFREGQFNHHHHHH

Kd (IL-13Rα2, biotinylated [2]): 0.0001 nM
B2: IL-13 variant C11 (ligand)
chain: PGPVPPSTAHRELIEELVNITQNQKAPLCNGSMVWSINLTAGMYCAALESLINVSGCSAIEKTQRMLSGFCPHKVSAGQFSSLHVTGRKIEVAQFVKDLLLHLKKLFKEGQFNHHHHHH

Kd (IL-13Rα2, biotinylated [2]): 0.393 nM
B3: IL-13 variant C4 (ligand)
chain: PGPVPPSTAVRELIEELVNITQNQKAPLCNGSMVWSINLTAGMYCAALESLINVSGCSAIEKTQRMLSGFCPHKVSAGQFSSLHVRDTRIEVAQFVKDLLNHLKELFTEGQFNHHHHHH

Kd (IL-13Rα2, biotinylated [2]): 0.003 nM
B4: IL-13 variant D7 (ligand)
chain: PGPVPPSTAARELIEELFNITQNQKAPLCNGSMVWSINLTAGMYCAALESLINVSGCSAIEKTKRMLSGFCPHKVSAGQFPSLHVKKTRIEVAQFVKDLLIHLRKLFKEGQFNHHHHHH

Kd (B6 [3]): 53 nM
Kd (A8): 0.263 nM
Kd (C9 [4]): 0.259 nM
Kd (C12 [5]): 0.053 nM
Kd (C7 [6]): 0.272 nM
Kd (A7): 0.218 nM
Kd (A6): 0.267 nM
Kd (C3 [7]): 0.379 nM
Kd (C2 [8]): 0.025 nM
Kd (C10 [9]): 5 nM
B5: IL-13Rα2 (receptor)
chain: DTEIKVNPPQDFEIVDPGYLGYLYLQWQPPLSLDHFKECTVEYELKYRNIGSETWKTIITKNLHYKDGFDLNKGIEAKIHTLLPWQCTNGSEVQSSWAETTYWISPQGIPETKVQDMDCVYYNWQYLLCSWKPGIGVLLDTNYNLFYWYEGLDHALQCVDYIKADGQNIGCRFPYLEASDYKDFYICVNGSSENKPIRSSYFTFQLQNIVKPLPPVYLTFTRESSCEIKLKWSIPLGPIPARCFDYEIEIREDDTTLVTATVENETYTLKTTNETRQLCFVVRSKVNIYCSDDGIWSEWSDKQCWEGEDLSKKTLLR
modifications: biotinylated (site not stated)

Kd (C9 [10]): 31000 nM
Kd (C12 [11]): 15000 nM
Kd (C7 [12]): 35000 nM
Kd (C3 [13]): 16000 nM
Kd (C2 [14]): 4000 nM
Kd (C10 [15]): 264 nM
Kd (A8): 2.06 nM
Kd (A7): 1.18 nM
Kd (A6): 1.9 nM
Kd (B6 [16]): 5.9 nM
B6: IL-13Rα1 (receptor)
chain: GGGGAAPTETQPPVTNLSVSVENLCTVIWTWNPPEGASSNCSLWYFSHFGDKQDKKIAPETRRSIEVPLNERICLQVGSQCSTNESEKPSILVEKCISPPEGDPESAVTELQCIWHNLSYMKCSWLPGRNTSPDTNYTLYYWHRSLEKIHQCENIFREGQYFGCSFDLTKVKDSSFEQHSVQIMVKDNAGKIKPSFNIVPLTSRVKPDPPHIKNLSFHNDDLYVQWENPQNFISRCLFYEVEVNNSQTETHNVFYVQEAKCENPEFERNVENTSCFMVPGVLPDTLNTVRIRVKTNKLCYEDDKLWSNWSLNDIFEAQKIEWHEHHHHHH
modifications: biotin on the C-terminal biotin acceptor peptide (coexpressed with BirA ligase)

Kd (IL-13Rα2, biotinylated [17]): 108 nM
B7: IL-13 variant B4 (ligand)
chain: PGPVPPSTALSELIEELINITQNQKAPLCNGSMVWSINPTAGMYCAALESLINVSGCSAIEKTQRMLSGFCPHKVAAGQFSSLHDKGSMIEVAQFVKDLLYHLRTLFREGQFNHHHHHH

Kd (IL-13Rα2, biotinylated [2]): 1.5 nM
B8: IL-13 variant B2 (ligand)
chain: PGPVPPSTALRELIEELINITQNEKAPLCNGSMVWSINLTAGIYCAALESLINVSGCSAIEKTQRMLSGFCPHKVSAGQFSSLHVTGSKIEVAQFVKDLLYHLRALFREGQFNHHHHHH

Kd (IL-13Rα2, biotinylated [17]): 50 nM
B9: IL-13 variant A5 (ligand)
chain: PGPVPPSTALIELIEELINITQNQKAPLCNGSMVWSINLTAGIYCAALESLINVSGCSAIEKTQRMLSGFCPHKVSAGQFSSLHVKGSKIEVAQFVKDLLHHLRALMREGQFNHHHHHH

Kd (IL-13Rα2, biotinylated [2]): 0.391 nM
B10: IL-13 variant A11 (ligand)
chain: PGPVPPSTAVRELIEELINITQNQKAPLCNGSMVWSINRTAGMYCAALESLINVSGCSAIEKTQRMLSGFCPHKVSAGQFSSLHVRSSKIEVAQFVKDLLFHLRTLFREGQFNHHHHHH
